Results reported in article PMC4517869, “EIN3 and ORE1 Accelerate Degreening during Ethylene-Mediated Leaf Senescence by Directly Activating Chlorophyll Catabolic Genes in Arabidopsis”.

Columns and labels:
[1] = target: T1, MBP-ORE1 (Arabidopsis thaliana, UniProt Q9FKA0 1-285); experiment: EMSA; LightShift Chemiluminescent EMSA kit binding buffer (composition, pH, temperature not given); 400 ng protein, 12.5 fmol 5'-biotin probe, 1 ug poly(dI-dC), 15 min; conditions: protein: recombinant; tags: N-terminal MBP (pMAL-c5g); chain copies: 2; label: 5'-biotin; blunt
T1 sequence: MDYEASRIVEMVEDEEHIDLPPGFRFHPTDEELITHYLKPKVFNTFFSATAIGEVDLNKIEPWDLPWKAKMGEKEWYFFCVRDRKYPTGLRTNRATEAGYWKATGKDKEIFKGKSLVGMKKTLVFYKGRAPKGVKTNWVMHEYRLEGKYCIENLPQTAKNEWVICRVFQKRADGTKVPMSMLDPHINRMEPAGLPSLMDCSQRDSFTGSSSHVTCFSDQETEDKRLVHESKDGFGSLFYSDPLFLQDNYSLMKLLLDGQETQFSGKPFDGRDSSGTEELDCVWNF

[2] = target: T2, MBP-N-EIN3 (Arabidopsis thaliana, UniProt O24606 1-314); experiment: competition; unlabeled 800-fold excess vs NYC1-EBS; LightShift Chemiluminescent EMSA kit binding buffer (composition, pH, temperature not given); 400 ng protein, 12.5 fmol 5'-biotin probe, 1 ug poly(dI-dC), 15 min; conditions: protein: recombinant; tags: N-terminal MBP (pMAL-c5g); chain copies: 2; blunt
T2 sequence: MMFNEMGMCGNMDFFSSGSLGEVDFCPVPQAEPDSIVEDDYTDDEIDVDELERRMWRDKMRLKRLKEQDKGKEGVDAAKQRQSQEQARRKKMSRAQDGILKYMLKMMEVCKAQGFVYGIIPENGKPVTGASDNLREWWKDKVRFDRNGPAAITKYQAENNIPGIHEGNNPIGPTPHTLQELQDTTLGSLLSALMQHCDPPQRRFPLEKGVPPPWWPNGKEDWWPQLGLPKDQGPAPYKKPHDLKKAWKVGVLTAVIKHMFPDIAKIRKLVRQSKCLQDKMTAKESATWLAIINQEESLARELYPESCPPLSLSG

[3] = target: T2, MBP-N-EIN3; experiment: competition; unlabeled 800-fold excess vs ORE1-EBS; LightShift Chemiluminescent EMSA kit binding buffer (composition, pH, temperature not given); 400 ng protein, 12.5 fmol 5'-biotin probe, 1 ug poly(dI-dC), 15 min; conditions: protein: recombinant; tags: N-terminal MBP (pMAL-c5g); chain copies: 2; blunt
[4] = target: T2, MBP-N-EIN3; experiment: competition; unlabeled 800-fold excess vs NYE1-EBS; LightShift Chemiluminescent EMSA kit binding buffer (composition, pH, temperature not given); 400 ng protein, 12.5 fmol 5'-biotin probe, 1 ug poly(dI-dC), 15 min; conditions: protein: recombinant; tags: N-terminal MBP (pMAL-c5g); chain copies: 2; blunt
[5] = target: T2, MBP-N-EIN3; experiment: EMSA; LightShift Chemiluminescent EMSA kit binding buffer (composition, pH, temperature not given); 400 ng protein, 12.5 fmol 5'-biotin probe, 1 ug poly(dI-dC), 15 min; conditions: protein: recombinant; tags: N-terminal MBP (pMAL-c5g); chain copies: 2; label: 5'-biotin; blunt
[6] = target: T2, MBP-N-EIN3; experiment: competition; unlabeled 800-fold excess vs PAO-EBS; LightShift Chemiluminescent EMSA kit binding buffer (composition, pH, temperature not given); 400 ng protein, 12.5 fmol 5'-biotin probe, 1 ug poly(dI-dC), 15 min; conditions: protein: recombinant; tags: N-terminal MBP (pMAL-c5g); chain copies: 2; blunt

B1: NYE1-OBS (dsDNA)
DNA 1: GTGGTTTCAGTGTACGAACACGCAAGAACTC
DNA 2: GAGTTCTTGCGTGTTCGTACACTGAAACCAC
[1]
  binding result: binds

B2: NYC1-EBSm (dsDNA)
DNA 1: TAATTTACTCAAAAAAAAAAGTAATGAC
DNA 2: GTCATTACTTTTTTTTTTGAGTAAATTA
[2]
  binding result: no binding

B3: NOL-OBS (dsDNA)
DNA 1: AGCTTGCTCGCTTACGCAACTCTCTCTCT
DNA 2: AGAGAGAGAGTTGCGTAAGCGAGCAAGCT
[1]
  binding result: binds

B4: ORE1-EBSm (dsDNA)
DNA 1: ATACTTTACAAGGGTAATGCATGCATAC
DNA 2: GTATGCATGCATTACCCTTGTAAAGTAT
[3]
  binding result: no binding

B5: NYE1-EBSm (dsDNA)
DNA 1: GTTTAGGTAAGCAATTTTTTTTTGGATAAACGAAATGC
DNA 2: GCATTTCGTTTATCCAAAAAAAAATTGCTTACCTAAAC
[4]
  binding result: no binding

B6: PAO-OBS (dsDNA)
DNA 1: ATTGCATACTTGCACGCAATCTCTTCTTC
DNA 2: GAAGAAGAGATTGCGTGCAAGTATGCAAT
[1]
  binding result: binds

B7: NYC1-EBS (dsDNA)
DNA 1: TAATTTACTCAGGTACATAAGTAATGAC
DNA 2: GTCATTACTTATGTACCTGAGTAAATTA
[5]
  binding result: binds

B8: NYC1-OBS (dsDNA)
DNA 1: GAGGTTGCTGTAACGTGTGGCCATCACAC
DNA 2: GTGTGATGGCCACACGTTACAGCAACCTC
[1]
  binding result: binds

B9: ACS2-OBS (dsDNA)
DNA 1: GGAATTATGTGGAGGACGTACGTTTATACATGTGCAGACTACAAC
DNA 2: GTTGTAGTCTGCACATGTATAAACGTACGTCCTCCACATAATTCC
[1]
  binding result: binds

B10: PAO-EBSm (dsDNA)
DNA 1: GCTTGAAATAAAAAAAAACAGAAGAGTA
DNA 2: TACTCTTCTGTTTTTTTTTATTTCAAGC
[6]
  binding result: no binding

B11: PAO-EBS (dsDNA)
DNA 1: GCTTGAAATAAGATTCATCAGAAGAGTA
DNA 2: TACTCTTCTGATGAATCTTATTTCAAGC
[5]
  binding result: binds

B12: NYE1-EBS (dsDNA)
DNA 1: GTTTAGGTAAGCAATACGAACCTGGATAAACGAAATGC
DNA 2: GCATTTCGTTTATCCAGGTTCGTATTGCTTACCTAAAC
[5]
  binding result: binds
